# Results taken from patent US20260167699A1 (Chugai, published 2026).
# B1: GpH7-A5/GpH7-B3 variant T335_14T/GpL16-k0 (antibody, human IgG1, kappa)
# heavy 1: not shown
# heavy 2: not shown
# light: DIVMTQSPLSLPVTPGEPASISCQASESLVHSNRNTYLHWYLQKPGQSPQLLIYKVSNRFSGVPDRFSGSGSGTDFTLKISRVEAEDVGVYYCSQNTHVPPTFGQGTKVEIERTVAAPSVFIFPPSDEQLKSGTASVVCLLNNFYPREAKVQWKVDNALQSGNSQESVTEQDSKDSTYSLSSTLTLSKADYEKHKVYACEVTHQGLSSPVTKSFNRGEC
# B2: GpH7-A5/GpH7-B3 variant A327_06M/GpL16-k0 (antibody, human IgG1, kappa)
# heavy 1: not shown
# heavy 2: not shown
# light: B1 light
# notes: copies: 1 + 1 + 2
# B3: GpH7-A5/GpH7-B3 variant E269_02A/GpL16-k0 (antibody, human IgG1, kappa)
# heavy 1: not shown
# heavy 2: not shown
# light: B1 light
# notes: copies: 1 + 1 + 2
# B4: GpH7-A5/GpH7-B3 variant A330_19Q/GpL16-k0 (antibody, human IgG1, kappa)
# heavy 1: not shown
# heavy 2: not shown
# light: B1 light
# notes: copies: 1 + 1 + 2
# B5: GpH7-A5/GpH7-B3 variant D270_02A/GpL16-k0 (antibody, human IgG1, kappa)
# heavy 1: not shown
# heavy 2: not shown
# light: B1 light
# notes: copies: 1 + 1 + 2
# B6: GpH7-A5/GpH7-B3 variant A330_16H/GpL16-k0 (antibody, human IgG1, kappa)
# heavy 1: not shown
# heavy 2: not shown
# light: B1 light
# notes: copies: 1 + 1 + 2
# B7: GpH7-A5/GpH7-B3 variant D270_10E/GpL16-k0 (antibody, human IgG1, kappa)
# heavy 1: not shown
# heavy 2: not shown
# light: B1 light
# notes: copies: 1 + 1 + 2
# B8: GpH7-A5/GpH7-B3 variant A327_19Q/GpL16-k0 (antibody, human IgG1, kappa)
# heavy 1: not shown
# heavy 2: not shown
# light: B1 light
# notes: copies: 1 + 1 + 2
# B9: GpH7-A5/GpH7-B3 variant D270_06M/GpL16-k0 (antibody, human IgG1, kappa)
# heavy 1: not shown
# heavy 2: not shown
# light: B1 light
# notes: copies: 1 + 1 + 2
# B10: GpH7-A5/GpH7-B3 variant E269_01G/GpL16-k0 (antibody, human IgG1, kappa)
# heavy 1: not shown
# heavy 2: not shown
# light: B1 light
# notes: copies: 1 + 1 + 2
# B11: GpH7-A5/GpH7-B3 variant A330_15Y/GpL16-k0 (antibody, human IgG1, kappa)
# heavy 1: not shown
# heavy 2: not shown
# light: B1 light
# notes: copies: 1 + 1 + 2
# B12: GpH7-A5/GpH7-B3 variant A330_12R/GpL16-k0 (antibody, human IgG1, kappa)
# heavy 1: not shown
# heavy 2: not shown
# light: B1 light
# notes: copies: 1 + 1 + 2
# B13: GpH7-A5/GpH7-B3 variant A327_13S/GpL16-k0 (antibody, human IgG1, kappa)
# heavy 1: not shown
# heavy 2: not shown
# light: B1 light
# notes: copies: 1 + 1 + 2
# B14: GpH7-A5/GpH7-B3 variant A327_18N/GpL16-k0 (antibody, human IgG1, kappa)
# heavy 1: not shown
# heavy 2: not shown
# light: B1 light
# notes: copies: 1 + 1 + 2
# B15: GpH7-A5/GpH7-B3 variant A330_03V/GpL16-k0 (antibody, human IgG1, kappa)
# heavy 1: not shown
# heavy 2: not shown
# light: B1 light
# notes: copies: 1 + 1 + 2
# B16: GpH7-A5/GpH7-B3 variant A330_11K/GpL16-k0 (antibody, human IgG1, kappa)
# heavy 1: not shown
# heavy 2: not shown
# light: B1 light
# notes: copies: 1 + 1 + 2
# B17: GpH7-A5/GpH7-B3 variant E269_08L/GpL16-k0 (antibody, human IgG1, kappa)
# heavy 1: not shown
# heavy 2: not shown
# light: B1 light
# notes: copies: 1 + 1 + 2
# B18: GpH7-A5/GpH7-B3 variant A327_05P/GpL16-k0 (antibody, human IgG1, kappa)
# heavy 1: not shown
# heavy 2: not shown
# light: B1 light
# notes: copies: 1 + 1 + 2
# B19: GpH7-A5/GpH7-B3 variant A330_10E/GpL16-k0 (antibody, human IgG1, kappa)
# heavy 1: not shown
# heavy 2: not shown
# light: B1 light
# notes: copies: 1 + 1 + 2
# B20: GpH7-A5/GpH7-B3 variant A330_08L/GpL16-k0 (antibody, human IgG1, kappa)
# heavy 1: not shown
# heavy 2: not shown
# light: B1 light
# notes: copies: 1 + 1 + 2
# B21: GpH7-A5/GpH7-B3 variant A327_01G/GpL16-k0 (antibody, human IgG1, kappa)
# heavy 1: not shown
# heavy 2: not shown
# light: B1 light
# notes: copies: 1 + 1 + 2
# B22: GpH7-A5/GpH7-B3 variant D270_13S/GpL16-k0 (antibody, human IgG1, kappa)
# heavy 1: not shown
# heavy 2: not shown
# light: B1 light
# notes: copies: 1 + 1 + 2
# B23: GpH7-A5/GpH7-B3 variant A327_09D/GpL16-k0 (antibody, human IgG1, kappa)
# heavy 1: not shown
# heavy 2: not shown
# light: B1 light
# notes: copies: 1 + 1 + 2
# B24: GpH7-A5/GpH7-B3 variant D270_18N/GpL16-k0 (antibody, human IgG1, kappa)
# heavy 1: not shown
# heavy 2: not shown
# light: B1 light
# notes: copies: 1 + 1 + 2
# B25: GpH7-A5/GpH7-B3 variant A330_01G/GpL16-k0 (antibody, human IgG1, kappa)
# heavy 1: not shown
# heavy 2: not shown
# light: B1 light
# notes: copies: 1 + 1 + 2
# B26: GpH7-A5/GpH7-B3 variant E269_06M/GpL16-k0 (antibody, human IgG1, kappa)
# heavy 1: not shown
# heavy 2: not shown
# light: B1 light
# notes: copies: 1 + 1 + 2
# B27: GpH7-A5/GpH7-B3 variant E269_07I/GpL16-k0 (antibody, human IgG1, kappa)
# heavy 1: not shown
# heavy 2: not shown
# light: B1 light
# notes: copies: 1 + 1 + 2
# B28: GpH7-A5/GpH7-B3 variant A330_06M/GpL16-k0 (antibody, human IgG1, kappa)
# heavy 1: not shown
# heavy 2: not shown
# light: B1 light
# notes: copies: 1 + 1 + 2
# B29: GpH7-A5/GpH7-B3 variant A330_04F/GpL16-k0 (antibody, human IgG1, kappa)
# heavy 1: not shown
# heavy 2: not shown
# light: B1 light
# notes: copies: 1 + 1 + 2
# B30: GpH7-A5/GpH7-B3 variant A330_07I/GpL16-k0 (antibody, human IgG1, kappa)
# heavy 1: not shown
# heavy 2: not shown
# light: B1 light
# notes: copies: 1 + 1 + 2
# B31: GpH7-A5/GpH7-B3 variant D270_07I/GpL16-k0 (antibody, human IgG1, kappa)
# heavy 1: not shown
# heavy 2: not shown
# light: B1 light
# notes: copies: 1 + 1 + 2
# B32: GpH7-A5/GpH7-B3 variant D270_14T/GpL16-k0 (antibody, human IgG1, kappa)
# heavy 1: not shown
# heavy 2: not shown
# light: B1 light
# notes: copies: 1 + 1 + 2
# B33: GpH7-A5/GpH7-B3 variant A327_20W/GpL16-k0 (antibody, human IgG1, kappa)
# heavy 1: not shown
# heavy 2: not shown
# light: B1 light
# notes: copies: 1 + 1 + 2
# B34: GpH7-A5/GpH7-B3 variant A330_14T/GpL16-k0 (antibody, human IgG1, kappa)
# heavy 1: not shown
# heavy 2: not shown
# light: B1 light
# notes: copies: 1 + 1 + 2
# B35: GpH7-A5/GpH7-B3 variant A330_05P/GpL16-k0 (antibody, human IgG1, kappa)
# heavy 1: not shown
# heavy 2: not shown
# light: B1 light
# notes: copies: 1 + 1 + 2
# B36: GpH7-A5/GpH7-B3 variant A327_10E/GpL16-k0 (antibody, human IgG1, kappa)
# heavy 1: not shown
# heavy 2: not shown
# light: B1 light
# notes: copies: 1 + 1 + 2
# B37: GpH7-A5/GpH7-B3 variant D270_03V/GpL16-k0 (antibody, human IgG1, kappa)
# heavy 1: not shown
# heavy 2: not shown
# light: B1 light
# notes: copies: 1 + 1 + 2
# B38: GpH7-A5/GpH7-B3 variant A330_20W/GpL16-k0 (antibody, human IgG1, kappa)
# heavy 1: not shown
# heavy 2: not shown
# light: B1 light
# notes: copies: 1 + 1 + 2
# B39: GpH7-A5/GpH7-B3 variant D270_08L/GpL16-k0 (antibody, human IgG1, kappa)
# heavy 1: not shown
# heavy 2: not shown
# light: B1 light
# notes: copies: 1 + 1 + 2
# B40: GpH7-A5/GpH7-B3 variant E269_03V/GpL16-k0 (antibody, human IgG1, kappa)
# heavy 1: not shown
# heavy 2: not shown
# light: B1 light
# notes: copies: 1 + 1 + 2
# B41: GpH7-A5/GpH7-B3 variant E269_09D/GpL16-k0 (antibody, human IgG1, kappa)
# heavy 1: not shown
# heavy 2: not shown
# light: B1 light
# notes: copies: 1 + 1 + 2
# B42: GpH7-A5/GpH7-B3 variant D270_19Q/GpL16-k0 (antibody, human IgG1, kappa)
# heavy 1: not shown
# heavy 2: not shown
# light: B1 light
# notes: copies: 1 + 1 + 2
# B43: GpH7-A5/GpH7-B3 variant A330_18N/GpL16-k0 (antibody, human IgG1, kappa)
# heavy 1: not shown
# heavy 2: not shown
# light: B1 light
# notes: copies: 1 + 1 + 2
# B44: GpH7-A5/GpH7-B3 variant A330_09D/GpL16-k0 (antibody, human IgG1, kappa)
# heavy 1: not shown
# heavy 2: not shown
# light: B1 light
# notes: copies: 1 + 1 + 2
# Biological target: T1, FcγRIIIa (human, UniProt P08637 17-208)
# T1 construct: extracellular domain; also called 3a; FcγRIIIa extracellular domain
# T1 sequence (P08637 other isoform, or with tags, fused parts or gaps): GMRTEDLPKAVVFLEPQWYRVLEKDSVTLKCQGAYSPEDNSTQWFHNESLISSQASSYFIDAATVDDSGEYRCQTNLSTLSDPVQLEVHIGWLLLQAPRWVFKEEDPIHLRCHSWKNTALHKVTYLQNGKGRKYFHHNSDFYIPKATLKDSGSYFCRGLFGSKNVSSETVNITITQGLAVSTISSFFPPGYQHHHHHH
# Assay: SPR (Biacore);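 note: antibody variants captured on an SPR sensor chip, with FcγRIIIa passed over as analyte in HBS-EP+ buffer at 25 °C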
row,Binder,He/Con 3a
1,B1,104 % of GpH7-A5/GpH7-B3/GpL16-k0
2,B2,54 % of GpH7-A5/GpH7-B3/GpL16-k0
3,B3,68 % of GpH7-A5/GpH7-B3/GpL16-k0
4,B4,86.3 % of GpH7-A5/GpH7-B3/GpL16-k0
5,B5,50.5 % of GpH7-A5/GpH7-B3/GpL16-k0
6,B6,102 % of GpH7-A5/GpH7-B3/GpL16-k0
7,B7,112 % of GpH7-A5/GpH7-B3/GpL16-k0
8,B8,54 % of GpH7-A5/GpH7-B3/GpL16-k0
9,B9,60 % of GpH7-A5/GpH7-B3/GpL16-k0
10,B10,61.6 % of GpH7-A5/GpH7-B3/GpL16-k0
11,B11,122 % of GpH7-A5/GpH7-B3/GpL16-k0
12,B12,77.3 % of GpH7-A5/GpH7-B3/GpL16-k0
13,B13,66.7 % of GpH7-A5/GpH7-B3/GpL16-k0
14,B14,62.8 % of GpH7-A5/GpH7-B3/GpL16-k0
15,B15,98.8 % of GpH7-A5/GpH7-B3/GpL16-k0
16,B16,91.8 % of GpH7-A5/GpH7-B3/GpL16-k0
17,B17,51.5 % of GpH7-A5/GpH7-B3/GpL16-k0
18,B18,61.9 % of GpH7-A5/GpH7-B3/GpL16-k0
19,B19,82.8 % of GpH7-A5/GpH7-B3/GpL16-k0
20,B20,122 % of GpH7-A5/GpH7-B3/GpL16-k0
21,B21,74.4 % of GpH7-A5/GpH7-B3/GpL16-k0
22,B22,51.4 % of GpH7-A5/GpH7-B3/GpL16-k0

row,Binder,He/Con 3a
1,B23,86 % of GpH7-A5/GpH7-B3/GpL16-k0
2,B24,51.2 % of GpH7-A5/GpH7-B3/GpL16-k0
3,B25,87.3 % of GpH7-A5/GpH7-B3/GpL16-k0
4,B26,57.9 % of GpH7-A5/GpH7-B3/GpL16-k0
5,B27,55.3 % of GpH7-A5/GpH7-B3/GpL16-k0
6,B28,139 % of GpH7-A5/GpH7-B3/GpL16-k0
7,B29,144 % of GpH7-A5/GpH7-B3/GpL16-k0
8,B30,101 % of GpH7-A5/GpH7-B3/GpL16-k0
9,B31,63.1 % of GpH7-A5/GpH7-B3/GpL16-k0
10,B32,55.4 % of GpH7-A5/GpH7-B3/GpL16-k0
11,B33,52.6 % of GpH7-A5/GpH7-B3/GpL16-k0
12,B34,85.8 % of GpH7-A5/GpH7-B3/GpL16-k0
13,B35,152 % of GpH7-A5/GpH7-B3/GpL16-k0
14,B36,70.5 % of GpH7-A5/GpH7-B3/GpL16-k0
15,B37,54.6 % of GpH7-A5/GpH7-B3/GpL16-k0
16,B38,102 % of GpH7-A5/GpH7-B3/GpL16-k0
17,B39,65.1 % of GpH7-A5/GpH7-B3/GpL16-k0
18,B40,56 % of GpH7-A5/GpH7-B3/GpL16-k0
19,B41,106 % of GpH7-A5/GpH7-B3/GpL16-k0
20,B42,74.2 % of GpH7-A5/GpH7-B3/GpL16-k0
21,B43,67.3 % of GpH7-A5/GpH7-B3/GpL16-k0
22,B44,56.4 % of GpH7-A5/GpH7-B3/GpL16-k0
